Our source for the Kd values is patent US20160207974A1 (published 2016).

The test has as its target T1, monkey serum albumin (monkey).
T1 construct: also called Monkey SA
In words: SPR (BioRad ProteOn XPR36), albumin amine-coupled to GLC chip, analyte from 5 nM in 3-fold dilutions, 25 C. As for the experimental part:
All studies were conducted on a BioRad ProteOn XPR36 system using a GLC sensor chip at 25 degrees C. For amine coupling the GLC chip was activated for 5 minutes using a 1:1 mixture of sulfo-NHS/EDC diluted 30-fold from the initial stock in water as shown below. Each albumin sample was diluted to 25 ug/ml in 10 mM Na Acetate pH 5.0 and injected for 5 minutes over separate sensor surfaces. Each surface was then blocked with 1 M ethanolamine pH 8.5. Each albumin was coupled at a density of 2000-5000 in resonance units.
The binding of an engineered polypeptide was tested using 5 nM as the highest concentration in a three-fold dilution series. The running buffer contained 10 mM HEPES pH 7.4, 150 mM NaCl, 3 mM EDTA and 0.005% tween-20. All samples were tested using a 3-fold dilution series. Each concentration series was tested in duplicate. The dissociation phase for the highest concentration […] was monitored for 3 hours.

As usually defined, the Kd is the constant that tells how readily two partners part at equilibrium.

T1 sequence (Q28522 17-600): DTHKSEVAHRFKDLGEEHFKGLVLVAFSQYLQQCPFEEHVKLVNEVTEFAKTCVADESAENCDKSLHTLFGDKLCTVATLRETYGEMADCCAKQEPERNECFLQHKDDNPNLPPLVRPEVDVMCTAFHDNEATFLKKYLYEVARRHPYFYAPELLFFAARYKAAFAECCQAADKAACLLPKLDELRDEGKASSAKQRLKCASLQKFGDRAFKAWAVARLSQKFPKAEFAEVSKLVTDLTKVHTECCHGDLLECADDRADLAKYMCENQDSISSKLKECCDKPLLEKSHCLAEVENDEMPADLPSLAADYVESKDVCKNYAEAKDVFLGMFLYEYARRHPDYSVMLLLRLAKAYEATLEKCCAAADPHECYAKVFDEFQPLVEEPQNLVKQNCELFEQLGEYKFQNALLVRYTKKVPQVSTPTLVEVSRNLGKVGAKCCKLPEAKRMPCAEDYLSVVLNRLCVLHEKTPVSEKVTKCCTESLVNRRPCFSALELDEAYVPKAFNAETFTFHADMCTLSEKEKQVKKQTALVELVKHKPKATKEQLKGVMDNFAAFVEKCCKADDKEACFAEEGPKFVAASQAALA

B1: PEP07986-neutral linker-A500 (Compound 2) (other)
chain: MGSLAEAKEAANAELDSYGVSDFYKRLIDKAKTVEGVEALKDAILAALPTGGGGSGGGSGGGSGGGSASVPIQKVQDDTKTLIKTIVTRINDISHTQSVSSKQKVTGLEFIPGLHPILTLSKMDQTLAVYQQILTSMPSRNVIQISNDLENLRDLLHVLAFSKSCHLPQASGLETLESLGGVLEASGYSTEVVALSRLQGSLQDMLQQLDLSPGC
notes: also called Cmpd 2; PEP07986-Neutral-A500
The molecule B1 yielded a Kd of 0.405 nM.

B2: PEP07986-negative linker-A500 (Compound 12) (other)
chain: MGSLAEAKEAANAELDSYGVSDFYKRLIDKAKTVEGVEALKDAILAALPTGGEGGEGGEGGEGGEGGEASVPIQKVQDDTKTLIKTIVTRINDISHTQSVSSKQKVTGLEFIPGLHPILTLSKMDQTLAVYQQILTSMPSRNVIQISNDLENLRDLLHVLAFSKSCHLPQASGLETLESLGGVLEASGYSTEVVALSRLQGSLQDMLQQLDLSPGC
notes: also called Cmpd 12; PEP07986-Negative-A500
The molecule B2 registered a Kd of 0.4 nM.
